Test [1] has as its target NHP IgG (rhesus macaque serum IgG) (rhesus macaque (Macaca mulatta)). Put plainly: SPR; BIAcore X100; Protein A immobilised on a CM5 chip ([…].
Another test has as its target human IgG (human). Put plainly: SPR; BIAcore X100; Protein A immobilised on a CM5 chip (target 5000 RU); human or NHP IgG at 20 µg/ml captured on the test flow cell to 500 RU; various concentrations of recombinant human CD64 flowed at 10 µl/min; control flow cell with Protein A only; regeneration with 10 mM glycine pH 2.0.

pKd: −log10 of the molar value.

Take “recombinant human CD64 receptor (from UniProt P12314 16-374)”: the pKd in test [1] was 6.79; in the test with human IgG (human) it was 7.66.

The values are drawn from article PMC10594996.
